Laboratory results as given in US20090068110A1, “ANTIBODIES TO INSULIN-LIKE GROWTH FACTOR RECEPTOR” (Genentech, Inc., priority 2006, published 2009).

B1: 10H5: mouse monoclonal anti-IGF-1R antibody from hybridoma 10H5.3.4, ATCC PTA-7007 (antibody, V domains shown)
VH: QVQLQQPGAELVKPGASVTLSCKASGYTFTRFWIHWVKQRPGQGLEWIGEINPSNGRTNYNENFKNKATLTVDTSSSTAYMQLSSLTSEVSVVYYCARGGRLDQWGQGTT
VL: DIVMTQSQKFMSTSLGDRVSVTCKASQNVGSNVAWYQQKPGQSPEALIYSASYRYSGVPDRFTGSGSGTDFTLTISNVQSEDLAEYFCHQYNNYPYTFGGGTKVEIKR
B2: 9F2: mouse monoclonal anti-IGF-1R antibody from hybridoma 9F2.6.2, ATCC PTA-7018 (antibody, V domains shown)
VH: QIQLVQSGPELKKPGETVKISCKASGYTLANYGMNWVKQAPGKGFKWMGWINTNTGKPTYSDEFKGRFVFSLETSASTAYLLINNLSNEDTATYFCARSIYYYGSRYFNVWGAGTT
VL: DIQMTQSTSSLSASLGDRVTISCRASQDINNYLTWYQQKPDGTVKLLIYYTSRLHSGVPSRFSGSGSGTDYSLTITNLEQEDFATYFCQQGNTLPWTFGEGTKVEIKR

Key:
PC3 = assay: cell viability assay, PC3; type: cell-based, human; set-up: key: +: growth inhibition; −: no or weak effect; settings: PC3, Prostate Adenocarcinoma
Description: (§1) The different cell lines were cultured in their respective culture media at 37° C. in a humidified atmosphere of 5% CO2. Subsequently, cells were detached from tissue-culture flasks using the cell-dissociation solution, TRIPLE SELECT™ solution (InVitrogen, Carlsbad, Calif., USA), and centrifuged at 1000 rpm for five minutes. Detached cells were washed once with PBS, counted, and seeded in 96-well plates (Corning, N.Y., USA) at 2000 cells per well in 100 μL of culture media. After an overnight incubation at 37° C. in a humidified atmosphere of 5% CO2, the cell-culture medium was replaced with 50 μL of starvation medium consisting of serum-free RPMI 1640™ medium without phenol red. The cells were then starved for five hours in the incubator before addition of 25 μL of each anti-IGF-1R monoclonal antibody at various dilutions in serum-free RPMI 1640™ phenol red-free media. Later, 25 μL of phenol red-free RPMI 1640™ media supplemented with 4% of fetal bovine serum (FBS) (Sigma) with or without 4 ng/ml of human recombinant IGF-I were added on top of the 50 μL of antibody. The cells were then placed at 37° C. with 5% CO2 for 5 to 6 days. At the end of the assay, cell viability was measured using the […]-GLO® kit according to the manufacturer's instructions (Promega, Madison, Wis., USA).

T47D = assay: cell viability assay, T47D; type: cell-based, human; set-up: key: +: growth inhibition; −: no or weak effect; settings: Breast Ductal Carcinoma
Description: as §1

HELA = assay: cell viability assay, HELA; type: cell-based, human; set-up: key: +: growth inhibition; −: no or weak effect; settings: Cervix Adenocarcinoma
Description: as §1

SW480 = assay: cell viability assay, SW480; type: cell-based, human; set-up: key: +: growth inhibition; −: no or weak effect; settings: SW480, Colorectal Adenocarcinoma
Description: as §1

HT29 = assay: cell viability assay, HT29; type: cell-based, human; set-up: key: +: growth inhibition; −: no or weak effect; settings: HT29, Colorectal Adenocarcinoma
Description: as §1

HCT15 = assay: cell viability assay, HCT15; type: cell-based, human; set-up: key: +: growth inhibition; −: no or weak effect; settings: HCT15, Colorectal Adenocarcinoma
Description: as §1

HMEC = assay: cell viability assay, HMEC; type: cell-based; set-up: key: +: growth inhibition; −: no or weak effect; settings: Human Mammary Epithelial Cell
Description: as §1

IGF-1R [1] = biological target: T1, IGF-1R (Homo sapiens, UniProt P08069); assay: KIRA assay of IGF-1R phosphorylation in MCF7 cells; type: cell-based; set-up: IGF-1R is normally localized at the plasma membrane of MCF7 cells; endogenous in cells; host or cells: MCF7; settings: IGF-I 10 ng/ml or IGF-II 50 ng/ml; ranking upon IGF-II stimulation
Description: Also examined was whether the blocking activity of these antibodies was sufficient to interfere with receptor activation, which is measured by IGF-1R phosphorylation. A KIRA assay (kinase receptor activation) was utilized to perform quantitative analysis of IGF-1R phosphorylation in MCF7 cells. Anti-IGF-1R antibodies in serial dilutions (0.19 to 200 nM in medium) were added to MCF7 cells in 96-well plates for one hour. IGF-I (10 ng/ml) or IGF-11 (50 ng/ml) was subsequently added and incubated for ten minutes. The cells were lysed, and the resulting lysates were transferred to an ELISA plate, which was coated with IGF-1R-capturing antibody 3B7 (250 ng/well). After incubation for two hours, the cell lysate was removed, and the plates were washed. Phosphotyrosine-specific antibody 4G10 (Upstate, Charlottesville, Va., USA) was added to detect IGF-1R phosphorylation through TMB peroxidase substrate.

IGF-1R [2] = biological target: T1, IGF-1R; assay: BIACORE surface-plasmon resonance, human IGF-1R; type: binding; set-up: containing the extracellular domain (ECD, amino acids 1-902) tagged with 10 or 12 histidine residues at the carboxyl terminus; His10 or His12 (C); made in house; host or cells: CHO cells; settings: affinity measurements, FIG. 14
Description: Binding affinities of antibodies to IGF-1R were determined by surface-plasmon resonance measurements on a BIACORE™ 3000 instrument (BIAcore, Inc.). Human IGF-1R-ECD was immobilized at a density of about 500 RU on the flow cells of a PIONEER™ CM5 sensor chip. Immobilization was achieved by random coupling through amino groups using a protocol provided by the manufacturer. Sensorgrams were recorded for binding of anti-IGF-1R Fab or IgG to these surfaces by injection of a series of solutions ranging from 500 nM to 3.1 nM and 250 nM to 0.78 nM in 2-fold increments, respectively. The signal from the reference cell was subtracted from the observed sensorgram. Kinetic constants were calculated by nonlinear regression analysis of the data according to a 1:1 Languir binding model using software supplied by the manufacturer. […]
Binding affinities of selected antibodies to IGF-1R were determined by surface plasmon resonance measurements on a BIACORE™ 3000 instrument (BIAcore, Inc.). […] Sensorgrams were recorded for binding of anti-IGF-1R Fab or IgG to these surfaces by injection of a series of solutions ranging from 500 nM to 3.1 nM and 250 nM to 0.78 nM in two-fold increments, respectively. […] Kinetic constants were calculated by non-linear regression analysis of the data according to a 1:1 Languir binding model using software supplied by the manufacturer.

| Molecule | Effect of IR3, 6D2, 9F2, and 10H5 (PC3) | Effect of IR3, 6D2, 9F2, and 10H5 (T47D) | Effect of IR3, 6D2, 9F2, and 10H5 (HELA) | Effect of IR3, 6D2, 9F2, and 10H5 (SW480) | Effect of IR3, 6D2, 9F2, and 10H5 (HT29) | Effect of IR3, 6D2, 9F2, and 10H5 (HCT15) | Effect of IR3, 6D2, 9F2, and 10H5 (HMEC) | inhibition of IGF-I/II-mediated IGF-1R phosphorylation (KIRA) (IGF-1R [1]) | binding to human IGF-1R (IGF-1R [2]) |
| --- | --- | --- | --- | --- | --- | --- | --- | --- | --- |
| B1 | − | − | + | + | + | − | − | most effective group | strong binding to human IGF-1R |
| B2 | − | − | + | + | + | − | − | most effective group | strong binding to human IGF-1R |
